The DeepSol protein solubility set

Assay: soluble on expression in E. coli; label from the status in PepcDB or PDB records

Sequence | soluble on expression in E. coli
MGSDKIHHHHHHMSIKTSNTDFKTRIRQQIEDPIMRKAVANAQQRIGANRQKMVDELGHWEEWRDRAAQIRDHVLSNLDAYLYQLSEKVTQNGGHVYFARTKEDATRYILQVAQRKNARKVVKSKSMVTEEIGVNHVLQDAGIQVIETDLGEYILQLDQDPPSHVVVPAIHKDRHQIRRVLHERLGYEGPETPEAMTLFIRQKIREDFLSAEIGITGCNFAVAETGSVCLVTNEGNARMCTTLPKTHIAVMGMERIAPTFAEVDVLITMLARSAVGARLTGYNTWLTGPREAGHVDGPEEFHLVIVDNGRSEVLASEFRDVLRCIRCGACMNTCPAYRHIGGHGYGSIYPGPIGAVISPLLGGYKDFKDLPYACSLCTACDNVCPVRIPLSKLILRHRRVMAEKGITAKAEQRAIKMFAYANSHPGLWKVGMMAGAHAASWFINGGKTPLKFGAISDWMEARDLPEADGESFRSWFKKHQAQEKKNG | not soluble
MGSDKIHHHHHHMSILGLFGCDNGRNIAIICKNNPEICADLHKDSWCLAEKTQLIRDRYTLKDTTHPTGKQLYLQLTYLEDYSRCIELAAGVQHIIHTSRTADRARAFRLSTENLTQLQEQTRERQDPFMSYYQWTRFGDTQALNRLLEHENAGEVTDPFLLAQIATYYSNRDAIKSQQLYLKVLSEIQYDDFDVNWLLGLASTFRHTQQFDKTYMLTKANLLLTQQKYSEDKMLALLSNNKTLAAKLDKYAQTLIDALKNGNYSTSSVRKWLEPAPQILPAETITTEPVPEK | not soluble
MGSDKIHHHHHHMSIPQQTDALDQAPSTAGCRVPYRVFTDRQYYDREQENIFKGNCWSFVGLEAEVPQAGDFKSTFVGETPVILTRDSDGSLHVVVNRCAHRGALVCREMRGNRASLECVYHQWAYDLKGNLIGVPFRRGLKGQGGMPGDFDMSQHNLRQLRTESVGGLVFASFSETVESCRDFLGPIVVEQIERIMCKPITVLGDQRQRIRGNWKLYAENTRDPYHASLLHLFHNTFGLYRSTQTGKALMDANKRHSLLYSIAASNDDAADKQAYGDSRTFDTEFKLQDMSLLKGRQEFADNVTLVILAVYPNLVLQQIQNTLAVRQTVTYGPDEFELVWTHFGYQDDDAEMQAIRLKQANLIGPAGLISMEDGEAVEIVQNAIVGEASATSYIAMGGGRAEDADHLVTEGAIIGFWDNYREMVGFEVEPT | not soluble
MGSDKIHHHHHHMSIVDKFGEKVGEIAENDPVKARKLLLAGYRLQEKRLALFPDRKLPMSGQYVAKIVMNNIIQALAKPENAAMVSIFVPGELLTAAGLTPYSVEALSCFIAGTKCEQAFLRQTEKEGFPETMCSYHRVFLGAALNGIVPKPKCMVYTNLACDGNMMTFPYLKERYEIPSFYIDVPYEKNYDSVMYVAKQLRELKSFLQDVTGREITEESVKKAVDKSKIASNNYYRQLHLRKGHDIASTLTNELYALFMCHLLAGTDESVRYTQLLRDDVRRAPAGDGFHVLWMHTMPFLQDAVKDVFNYSDTIHISASDFIADGFRSMESDDPYEALAEKMVYCIYNGSVNQRIDEAKELADTVGADGAVLFAHWGCKNTIGASSLIKRSLEREGLPTMVLDGDGCNPANASDGQISTRLQAFVEMLTEQERN | not soluble
MGSDKIHHHHHHMSKGRHVCFLTGTLNAMAGAERMTAVIANALAESGHTVSILSLWDKDSCFPLHPAVGHEALFAERPSFKKAYLTTVAGIRRYCRERKVDVLVQVDTMLALLALPATVGLGVQHIAWEHCHFDEDLGRRARRYARRLAARYCKHVVVLTERDQLRWIEALQPRSQVVIIPNPLPFPFPEEPAPRTGKIVLAMGRLVNAKGFDVLIRAWQRVSAEVPDWKLVIHGEGEERPALSALIDELGLQDSVSLPGICRDATEAYREASIFCLSSRYEGFGLVLIEAMAFGLPIVSTNCEAGPRELLATGTVGLTVPVDAPTMLAASILDLIHQPDLALRFAHAERMFAKGYSLQQIGARWSDLTSARHGSMPQYS | not soluble
MGSDKIHHHHHHMSKLNLVHLNGLRAVEAVGRLGSLQAAASELGVSIGAISQQVIKAEQQLQLQLFERTSRGMVPTDVAEPVLDRLSAGFRHLSGAVALALKSDDTVLTISVAPVFAARWLVHRIGAFSERFPTIRLRMEASDRLIDPSSSDVDLCIRVGRGDWPGVRAELLLEQKVFPVCTPAMAKRLQSPADLLELPIVEDGRAMFSWDVWLAAAGLPGRSVCTRHVFSEASLCLDAALAGQGVLLAWQTIASQQLQQGQLVAPFGPAVPTGLAHYFVSPEGARRNDKVDAFKRWLRDELHEDMTRLAKAIPFLGGPFLKGECG | not soluble
MGSDKIHHHHHHMSLANRYEFVYLFDVSNGNPNGDPDAGNLPRLDPETNQGLVTDVCLKRKLRNYVALEKENEPGFAIYMQEKSVLNHQHKRAYEALSLEPEPKKLPKDQAKARELTAWMCKNFFDVRAFGAVMTTEVNAGQVRGPIQLTFATSIDPVVPLEVSITRMAVTNDKDLEKERTMGRKHIVPYGLYRAHGFVSAKLAERAGFGEEDLQLLWRGLINMFEHDRSAARGEMTARKLIAFKHECALGNAPAHRLFDSVRVSRADGAGDSPARGFTDYRVELDRAVLPAGVEVLELL | not soluble
MGSDKIHHHHHHMSLKMKLIYVVESSVPYGANKCLIEIIDRLDKDKHEVMVVGADEGALSSWLRERNVSYVSLNHRLSIYPVLNSRKDYLLWLPRLFRRVALNVIAMVKFFKICKRFKPDIVHTNVGPCSLGYFVATYLGIKHVWHVREYQDLDFGMSFFPNRKAFLKRLKRSDAVICITNSIAAHFHLTDNENLAVINDGVISDEKEIDIIQKENYFLFAGRLEAAKGIEEAIESFFEFCETDSSGISFYVAGDGNFNYLKKLKEKVSKSNFSNRVRFLGFRDDIFALMRMAKALVVASRCEGFGLITAEAMYQGTLVIGRDTGGTSEILKDSKGIHYGFLFNSIDELTKLMHEVVDLSPDEYTKMARSAQRRTLDKYTINRNFREISDVYNTLM | not soluble
MGSDKIHHHHHHMSNDKEIIKRAVERHDIDSSIFQGRYVNFTQGKYTDEFIYGRYQMFEEIDRILSSLPKGAKVLDLGCGTGHFSTYIKTLCYEVTGLDPSTKMLDYARQNFPEITFVEGYSNALPFEDNTFDLIISIEVLRYLDTKIVLESYEEIYRTLKPNGKMFITHVNTLATEGYYIFYHLKKLAHSFKGKEYHSAYFTSANKEERTLKKIGFKNISCIGRMFATVRTGYKFGKTIGKTYAKLLEKFNPKQRFEKSHFKNFTGHLIVIAEK | not soluble
MGSDKIHHHHHHMSNFLLEAGRQTLMLELQEASRLPERLGDDFIRAAETIIHCEGKLIVSGIGKSGHIGKKLAATFASTGTPAFFVHPAEALHGDLGMLDSRDVMLFISYSGSAKELDLIVPRLEEKGIPLLAMTGKSTSPLALAAKAVLDIAVEREACPMHLAPTSSTVNTLMLGDALAMAVMQARGFNEEDFARSHPAGALGARLLNKVHHLMRRDEEVPRVNTEANVMDAMLELSRTGLGLVAVCDEANRVQGVFTDGDLRRWLVAGGTLNDGVTRAMTRNGVTLQADSRAVEAKERLMKHKISAAPVVDENGQLVGAINLQNFYQAGIL | not soluble
MGSDKIHHHHHHMSNHNWTRRDFIKGVGATTAGITLSACNPSGDRSATGLTQEALTIKPVIKSSDLEKPDLIVGYVPVNDCAPFAIAWKKGFFRKYGLNVQLNREASWATSRDGLIFGRLDAAPVVSGAVTNARIGAEGARHAPLCAAMTIHRHGNAMTMNKAMWDFGLRPWYEYQEKYGDGALEAFGRDFRGYFEKQPPENKVWAVVLSSAIYEYFVRYVSAAAGVDPLKEFRVIIVPPPQMVTNVRIGAMQAYMVAEPWNTRAITGNEGIGFTFAQGKEVWLGHPDRLLGVMESFIDQYPKTYRSLVKAMIEACQYCSKPENRQEVAELITDRSFTGARPKNKNLPITKLTAPGIIGSYNYGGFDGKDRTIPAADTTIFYDIPDNLPKQPAEHSTFLWRSRSLWLMTQAARWGQIKEFPKNAEQLAEKGWRTDLYRQIAAEMGIQCPQDDYKVEPPEVFIDKKGFDPSDPVGYLNSFAIRANAPTRFFLS | not soluble
MGSDKIHHHHHHMSNRIKNIHYGTQRQQLKNLTKKEYQALREMCFLAKNLYNVGTYNVRQHYFNQGEHLNYEANYHVCKENENYKLLNSNIAQQILKEVDSSFRSFFGLIKLAKEGKYDFRGIKSPKYLDKEGFFSIIIGQIRIKEDGILNVPMSPAFKKLYGKVSIKVPQNILEKKIKEIRIIPKHKARFFEIQYCYEIPKSEEVSNQKNALAIDLGLENLCTCVTNLGDSFIIDGKRLKSVNQWANKQNDKIEALKLKKNITAITRKQFKVWNKRNNQVKDYVNKTCFYIIDYCVKNNIGNLIVGYNAKLEKSDNMERKIYRNFIRIPFGEIKGKLEYLCKIKNINFIRQEESYTSKSDFFADDFLPDINVDNVKKYDFKGERITRGQYKSSVGIIINADVNASLNILKKSQVVNLSNLQNNPQILKQPQRVRIS | not soluble
MGSDKIHHHHHHMSNRQEQPHFNDWFQARGITEVECLVTDLTGILKGKIMPAGKYLGGGRPRLPDSIFIQTVTGGYPDDDDIHFWNPAERDMELVPDPNAVFLVPWADDPTAQIIHDCHYLTGEPVELAPRHVLKRVLACYQARGWKPVVAPEVEFFLVKTNTDSDYPLEPPIGRNGRQESSRQSFSIDAVNEFDPLFEEMYDYCDAMSLDLDTLIHEEGAGQMEVNFQHGDPLHLADQVVMFKRALRETALRHGMYATFMAKPMANEPGSSMHLHQSLLDAQSGDNLFASDNGQSSRLFQHFIGGLQRYLPASMPLLAPNVNSYRRLMRTETSGSAPINVEWGTDNRTVGLRVPVSTPEATRVENRLAGADANPYLVMAASLACGYLGMLGQLEPRPPMVGSAWSGGHKLPDDIRPALDMLSECQPLAEILGERFTNSYLAVKRAEHREYFQVISSWEREHLLLRV | not soluble
MGSDKIHHHHHHMSNTVRAISPDITLFNKTLTFQEISQNTREAVIYIHGGAWNDPENTPNDFNQLANTIKSMDTESTVCQYSIEYRLSPEITNPRNLYDAVSNITRLVKEKGLTNINMVGHSVGATFIWQILAALKDPQEKMSEAQLQMLGLLQIVKRVFLLDGIYSLKELLIEYPEYDCFTRLAFPDGIQMYEEEPSRVMPYVKKALSRFSIDMHLVHSYSDELLTLRQTNCLISCLQDYQLSFKLYLDDLGLHNDVYKNGKVAKYIFDNIC | soluble
MGSDKIHHHHHHMSNVDHAEIAKFEALAHRWWDRESEFKPLHDINPLRVNWIDERAGLAGKKVLDIGCGGGILSEAMAQRGASVTGIDMGEAPLAVARLHQLESGVAVDYRQITAEQMAEEMPGQFDVVTCLEMLEHVPDPASVIRACHRLVKPGGQVFLSTINRNPKAYLFAVIGAEYILQLLPRGTHDFRKFIRPSELGAWSREAGLEVKDIIGLTYNPLTKHYKLANDVDVNYMVQTKREA | not soluble
MGSDKIHHHHHHMSPMTIPSEMKALLLVGDGYTKTPSGSALEAMEPYLEQGRIAVPAPGPSQVLIKVNLASINPSDVAFIKGQYGQPRVKGRPAGFEGVGTIVAGGDEPYAKSLVGKRVAFATGLSNWGSWAEYAVAEAAACIPLLDTVRDEDGAAMIVNPLTAIAMFDIVKQEGEKAFVMTAGASQLCKLIIGLAKEEGFRPIVTVRRDEQIALLKDIGAAHVLNEKAPDFEATLREVMKAEQPRIFLDAVTGPLASAIFNAMPKRARWIIYGRLDPDATVIREPGQLIFQHKHIEGFWLSEWMRQFKERRGPAILEAQKRFSDGRWSTDVTAVVPLAEAIAWVPAELTKPNGKVFIRP | not soluble
